Legend:
[1] = target: T1, Anti-CD28 Fab (SEQ ID NOs: 202, 203); test: phage ELISA on captured biotinylated Fab;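 further: wells preblocked with or without CD28 antigen, then clonal phage supernatant added briefly, washed, and bound phage read out by ELISA using HRP-linked anti-M13 antibody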
T1 construct: biotinylated and captured on neutravidin coated plates in the phage ELISA
T1 sequence (VH, as listed by the source, chain 1 of 2): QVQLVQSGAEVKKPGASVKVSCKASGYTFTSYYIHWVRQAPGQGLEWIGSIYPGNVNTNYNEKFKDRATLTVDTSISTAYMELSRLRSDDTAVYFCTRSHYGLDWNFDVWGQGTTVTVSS
T1 sequence (VL, as listed by the source, chain 2 of 2): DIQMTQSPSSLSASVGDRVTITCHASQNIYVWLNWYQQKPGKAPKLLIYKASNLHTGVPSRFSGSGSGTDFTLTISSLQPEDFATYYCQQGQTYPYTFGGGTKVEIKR
Procedure: (§1) Clonal phage were harvested as crude supernatants and screened via standard ELISAs. […] Prior to the addition of clonal phage, wells were incubated with blocking buffer and CD28 antigen or blocking buffer alone. Without washing or aspirating, clonal phage supernatants were then added to the wells and incubated for a short time. Wells were then washed followed by detection of bound phage using a horse radish conjugated anti-M13 antibody.

[2] = target: T1, Anti-CD28 Fab (SEQ ID NOs: 202, 203); test: phage ELISA on captured Fab, wells pre-incubated with CD28 antigen (competitor: CD28);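 further: bound clonal phage detected with an HRP-linked anti-M13 antibody, compared against wells that received blocking buffer alone without CD28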
Procedure: as §1

[3] = target: Anti-CD28 Fab (SEQ ID NOs: 202, 203); test: phage binding ELISA on captured Fab, competitor CD28 antigen;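 further: clonal phage supernatant binding in wells preincubated with CD28 antigen in blocking buffer, detected by HRP-conjugated anti-M13 antibody ELISA, compared with blocking buffer alone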
Target sequence in this assay (VH, as listed by the source, chain 1 of 2): as the sequence (VH, as listed by the source, chain 1 of 2) above
Target sequence in this assay (VL, as listed by the source, chain 2 of 2): as the sequence (VL, as listed by the source, chain 2 of 2) above
Procedure: as §1

[4] = target: Anti-CD28 Fab (SEQ ID NOs: 202, 203); test: phage binding ELISA on captured Fab;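 further: clonal phage supernatants added briefly to wells pre-incubated with CD28 antigen or with blocking buffer only, then washed, bound phage read by ELISA using HRP-coupled anti-M13 antibody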
Target sequence in this assay (VH, as listed by the source, chain 1 of 2): as the sequence (VH, as listed by the source, chain 1 of 2) above
Target sequence in this assay (VL, as listed by the source, chain 2 of 2): as the sequence (VL, as listed by the source, chain 2 of 2) above
Procedure: as §1

Row | Binder | Anti-CD28 Fab signal [1] | Anti-CD28 Fab signal in the presence of CD28 [2] | Anti-CD28 Fab signal in the presence of CD28 [3] | Anti-CD28 Fab (SEQ ID NOs: 202, 203) signal [4]
1 | YCEGHLAEYMDKCL [Phage-272] | 1.96 | 0.07 |  | 
2 | YCDGHLPIYMTQCL [Phage-271] | 1.97 | 0.08 |  | 
3 | YCDGHAPEFIRKCL [Phage-754] |  |  | 0.07 | 1.05
4 | YCEGHLPMYFLKCM [Phage-270] | 1.97 | 0.06 |  | 
5 | YCDGHSSAYIDKCL [Phage-752] |  |  | 0.06 | 1.05
6 | YCAGHSPEFMEKCL [Phage-297] | 1.91 | 0.06 |  | 
7 | YCDGHLPQYMSKCL [Phage-262] | 2 | 0.1 |  | 
8 | YCDGHMPQYMSKCL [Phage-266] | 1.98 | 0.08 |  | 
9 | YCDGHLWEYMDKCL [Phage-269] | 1.97 | 0.06 |  | 
10 | YCDGHDARYMTKCL [Phage-756] |  |  | 0.09 | 1.04
11 | YCMGHQPEYMQKCL [Phage-291] | 1.93 | 0.08 |  | 
12 | YCEGHLPSYLAKCL [Phage-753] |  |  | 0.06 | 1.05
13 | YCEGHSSEYLGKCL [Phage-750] |  |  | 0.09 | 1.05
14 | YCEGHAAEYMMKCL [Phage-263] | 1.99 | 0.07 |  | 
15 | YCEGHAPQYMSKCL [Phage-755] |  |  | 0.08 | 1.04
16 | YCEGHRAEYMEKCL [Phage-288] | 1.93 | 0.06 |  | 
17 | YCDGHSAEYLAKCL [Phage-293] | 1.93 | 0.08 |  | 
18 | YCDGHLPRYMEKCM [Phage-751] |  |  | 0.06 | 1.05
19 | YCAGHLPMYMHKCL [Phage-264] | 1.99 | 0.18 |  | 
